B1: TPR t1 (parent)
chain: GACCAAUCUGCCCUCAGAGCUCGAGAACAUCUUCGGAUGCAGAGGAGGCAGGCUUCGGUGGCGCGAUAGCGCCAACGUCCUCAACCUCCAAUGCAUCCCACCACAUGAUGAUGCCUGAAGAGCCUUGGUUUUUUG

Variants of: B1
Test: polymerase ribozyme fitness, log enrichment relative to wild type (log ratio); higher = more active; in vitro selection for triplet polymerase activity
How it was run: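 Streptavidin-bead capture of gel-excised extended constructs, followed by RT-PCR, closed a single triplicate in vitro selection round. That round began by annealing PCR-built, transcribed mutant libraries of each subunit of a heterodimeric triplet polymerase ribozyme with a biotinylated primer, the partner subunit and triplets, then incubating them frozen at −7 °C. After Illumina sequencing of inputs and outputs, genotypes needed ≥10 input reads and ≥1 read per output. Fitness is the base-2 logarithm of genotype enrichment over wild-type enrichment, using inverse-variance-weighted replicate averages.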

Q: With C53A G63U C114U as the variant, how does the “polymerase ribozyme fitness (log ratio)” value read?
A: Its value is -5.9.

Q: Which “polymerase ribozyme fitness (log ratio)” value does the source give for U54G G71A here?
A: The value was -4.72.

Q: Which “polymerase ribozyme fitness (log ratio)” value does the source give for C53G G63A C115G U116A U131G here?
A: Its value is -7.22.

Q: Which “polymerase ribozyme fitness (log ratio)” value does the source give for U54C U133A here?
A: The value was -0.0319.

Q: For U54A C86U C97U C101G, which “polymerase ribozyme fitness (log ratio)” value is on record?
A: Its value is -2.

Q: With U55A A66G C101G as the variant, how does the “polymerase ribozyme fitness (log ratio)” value read?
A: The value was -2.92.

Q: For U54G U59A C80U C123A U129C, which “polymerase ribozyme fitness (log ratio)” value is on record?
A: Its value is -1.82.

Q: For C53U G61A A74U G127C, which “polymerase ribozyme fitness (log ratio)” value is on record?
A: The value was -1.43.

Q: For C53G A105C, which “polymerase ribozyme fitness (log ratio)” value is on record?
A: Its value is -2.81.

Q: For C53U U96G G113C, which “polymerase ribozyme fitness (log ratio)” value is on record?
A: The value was -2.77.

Q: Which “polymerase ribozyme fitness (log ratio)” value does the source give for C53U C62U A95C here?
A: The value was -1.08.

Q: With C53U G63U as the variant, how does the “polymerase ribozyme fitness (log ratio)” value read?
A: Its value is -1.11.

Q: Which “polymerase ribozyme fitness (log ratio)” value does the source give for C53U C72A C123A G128U here?
A: The value was -0.319.

Q: With C53A G77U C102U as the variant, how does the “polymerase ribozyme fitness (log ratio)” value read?
A: The value was -2.

Q: Which “polymerase ribozyme fitness (log ratio)” value does the source give for U54G G63C C86G C114A U133C here?
A: Its value is -3.86.

Q: For C53G U131G, which “polymerase ribozyme fitness (log ratio)” value is on record?
A: Its value is -1.07.

Q: With C53G C115A as the variant, how does the “polymerase ribozyme fitness (log ratio)” value read?
A: Its value is -0.163.

Q: For C53G G63U, which “polymerase ribozyme fitness (log ratio)” value is on record?
A: Its value is -2.05.

Q: With U54A G61A as the variant, how does the “polymerase ribozyme fitness (log ratio)” value read?
A: Its value is 0.266.

Q: For C53G A75U C88A, which “polymerase ribozyme fitness (log ratio)” value is on record?
A: The value was -0.918.

Q: Which “polymerase ribozyme fitness (log ratio)” value does the source give for C53G C62U here?
A: Its value is -0.0991.

Q: Which “polymerase ribozyme fitness (log ratio)” value does the source give for C53G C62A here?
A: The value was -1.3.

Q: Which “polymerase ribozyme fitness (log ratio)” value does the source give for C53G A119G G128U here?
A: Its value is 0.277.

Q: For U54C C56A C89U, which “polymerase ribozyme fitness (log ratio)” value is on record?
A: The value was -0.439.

Q: For C53G C56U G117A, which “polymerase ribozyme fitness (log ratio)” value is on record?
A: The value was -1.63.

Q: With C53U C101G U130A as the variant, how does the “polymerase ribozyme fitness (log ratio)” value read?
A: The value was -2.65.

Q: With C53U C56G C76G U125A as the variant, how does the “polymerase ribozyme fitness (log ratio)” value read?
A: The value was -0.978.

Q: With U54G U78A G93U as the variant, how does the “polymerase ribozyme fitness (log ratio)” value read?
A: The value was -4.13.

Q: With C53G G61A as the variant, how does the “polymerase ribozyme fitness (log ratio)” value read?
A: Its value is -1.75.

Q: Which “polymerase ribozyme fitness (log ratio)” value does the source give for U54G A105G U112A C123G C124A U132C here?
A: The value was -2.09.

Q: For U54A C62U C64U, which “polymerase ribozyme fitness (log ratio)” value is on record?
A: The value was -0.217.

Q: For C53U U109A, which “polymerase ribozyme fitness (log ratio)” value is on record?
A: The value was -5.04.

Q: With U54G C72U C97U as the variant, how does the “polymerase ribozyme fitness (log ratio)” value read?
A: Its value is -0.381.

Q: For C53A U59C A121G, which “polymerase ribozyme fitness (log ratio)” value is on record?
A: Its value is 1.49.

Q: With C53A G71U C85A as the variant, how does the “polymerase ribozyme fitness (log ratio)” value read?
A: The value was -0.672.

Q: For C53U U55G C104U, which “polymerase ribozyme fitness (log ratio)” value is on record?
A: Its value is 0.237.

Q: With U54C C56G U131G as the variant, how does the “polymerase ribozyme fitness (log ratio)” value read?
A: Its value is -1.34.

Q: With C53U C70U A74G G113C U133A as the variant, how does the “polymerase ribozyme fitness (log ratio)” value read?
A: The value was -2.94.

Q: Which “polymerase ribozyme fitness (log ratio)” value does the source give for U54A G69A U78G C82G A121U U130A here?
A: Its value is -1.06.

Q: Which “polymerase ribozyme fitness (log ratio)” value does the source give for C53G C114U G122A here?
A: The value was -2.38.

Q: Which “polymerase ribozyme fitness (log ratio)” value does the source give for C53G C94A U132A here?
A: Its value is -1.31.

Q: For C53U G69C, which “polymerase ribozyme fitness (log ratio)” value is on record?
A: The value was -1.01.

Q: With U54A A95C as the variant, how does the “polymerase ribozyme fitness (log ratio)” value read?
A: The value was -0.767.

Q: With C53G U116A as the variant, how does the “polymerase ribozyme fitness (log ratio)” value read?
A: Its value is -2.67.

Q: Which “polymerase ribozyme fitness (log ratio)” value does the source give for U54A C94U U109G here?
A: The value was -5.

Q: With U54G C62A A95C A121G as the variant, how does the “polymerase ribozyme fitness (log ratio)” value read?
A: Its value is -6.12.

Q: Which “polymerase ribozyme fitness (log ratio)” value does the source give for C53U U78C C89U A95G C101G C114U U125A G128A here?
A: The value was -5.82.

Q: For C53G G63C G127C, which “polymerase ribozyme fitness (log ratio)” value is on record?
A: Its value is -1.19.

Q: With C53U G93C as the variant, how does the “polymerase ribozyme fitness (log ratio)” value read?
A: Its value is -1.07.

Q: For C53U G93U, which “polymerase ribozyme fitness (log ratio)” value is on record?
A: The value was -0.832.

Q: Which “polymerase ribozyme fitness (log ratio)” value does the source give for U54A G71U here?
A: The value was -0.0584.

Q: For C53G U92C, which “polymerase ribozyme fitness (log ratio)” value is on record?
A: Its value is -1.3.

Q: For U54G U59C U130A, which “polymerase ribozyme fitness (log ratio)” value is on record?
A: The value was -1.81.

Q: For C53G U112C C124U, which “polymerase ribozyme fitness (log ratio)” value is on record?
A: The value was 1.27.

Q: With C53G G57A G71A C94G C114A as the variant, how does the “polymerase ribozyme fitness (log ratio)” value read?
A: The value was -5.83.

Q: With C53G G77U C86A as the variant, how does the “polymerase ribozyme fitness (log ratio)” value read?
A: The value was -1.02.

Q: With U54C G71U C97G C123U as the variant, how does the “polymerase ribozyme fitness (log ratio)” value read?
A: Its value is -4.02.

Q: With U54G G63C C70U as the variant, how does the “polymerase ribozyme fitness (log ratio)” value read?
A: Its value is -1.73.

Q: For C53U A95C C115A, which “polymerase ribozyme fitness (log ratio)” value is on record?
A: The value was 0.802.

Q: For C53G C70G U81C C94G A121C, which “polymerase ribozyme fitness (log ratio)” value is on record?
A: Its value is -7.53.

Q: Which “polymerase ribozyme fitness (log ratio)” value does the source give for U54A C73A C79A G107C A119G here?
A: The value was -6.96.

Q: For C53U C76U G128A, which “polymerase ribozyme fitness (log ratio)” value is on record?
A: Its value is -2.11.

Q: With C53A U96A U106A G120A as the variant, how does the “polymerase ribozyme fitness (log ratio)” value read?
A: The value was 0.0353.

Q: Which “polymerase ribozyme fitness (log ratio)” value does the source give for C53U C73G C85U C102A here?
A: The value was -5.04.

Q: With U54C G57C C72G U112C as the variant, how does the “polymerase ribozyme fitness (log ratio)” value read?
A: The value was 0.604.

Q: With U54A C82U as the variant, how does the “polymerase ribozyme fitness (log ratio)” value read?
A: The value was -0.0762.

Q: For C53U U131G, which “polymerase ribozyme fitness (log ratio)” value is on record?
A: Its value is -0.948.

Q: Which “polymerase ribozyme fitness (log ratio)” value does the source give for C53U U81C U96A here?
A: Its value is -2.89.

Q: Which “polymerase ribozyme fitness (log ratio)” value does the source give for C53G C124A G127A here?
A: Its value is 0.953.

Q: For C53U G60A A83C U87C, which “polymerase ribozyme fitness (log ratio)” value is on record?
A: The value was -0.3.

Q: With U54A U81C A90G C123U as the variant, how does the “polymerase ribozyme fitness (log ratio)” value read?
A: Its value is 0.715.

Q: With C53U C73U C79A G127C as the variant, how does the “polymerase ribozyme fitness (log ratio)” value read?
A: The value was -1.71.

Q: Which “polymerase ribozyme fitness (log ratio)” value does the source give for C53U U126G here?
A: The value was -1.77.

Q: With C53G U87G as the variant, how does the “polymerase ribozyme fitness (log ratio)” value read?
A: The value was -0.632.

Q: With C53A U55G as the variant, how does the “polymerase ribozyme fitness (log ratio)” value read?
A: The value was 0.151.

Q: Which “polymerase ribozyme fitness (log ratio)” value does the source give for U54G G113U here?
A: The value was -3.26.

Q: With U54A U112A G117C as the variant, how does the “polymerase ribozyme fitness (log ratio)” value read?
A: The value was -3.84.

Q: Which “polymerase ribozyme fitness (log ratio)” value does the source give for C53U A90C U96G A118U here?
A: The value was -1.37.

Q: With U54A A74U C124G as the variant, how does the “polymerase ribozyme fitness (log ratio)” value read?
A: The value was 0.443.

Q: With U54G G60A as the variant, how does the “polymerase ribozyme fitness (log ratio)” value read?
A: The value was -4.1.

Q: With U54A C102U as the variant, how does the “polymerase ribozyme fitness (log ratio)” value read?
A: The value was -2.1.

Q: For C53U G93A A103C, which “polymerase ribozyme fitness (log ratio)” value is on record?
A: The value was -5.92.

Q: With C53G G71A G93C as the variant, how does the “polymerase ribozyme fitness (log ratio)” value read?
A: Its value is -1.51.

Q: For C53A U78G C80U C123G, which “polymerase ribozyme fitness (log ratio)” value is on record?
A: The value was 0.434.

Source: the RNAGym collection of RNA variant scans (doi:10.1073/pnas.2313332121)
